Columns and labels:
mouse Glut12/Slc2a12 = biological target: T1, mouse Glut12/Slc2a12 (Mus musculus, UniProt Q8BFW9); experiment: [[…]-14C]-urate uptake in transiently transfected HEK293 cells; assay type: cell-based; settings: 10 µM urate, Krebs-Ringer buffer, pH 5.4, 10 min; labelled compound
T1 construct: full-length wild-type ORF in pEGFP-N1, EGFP-tagged; transient expression in HEK293 cells
T1 sequence (Q8BFW9 1-622): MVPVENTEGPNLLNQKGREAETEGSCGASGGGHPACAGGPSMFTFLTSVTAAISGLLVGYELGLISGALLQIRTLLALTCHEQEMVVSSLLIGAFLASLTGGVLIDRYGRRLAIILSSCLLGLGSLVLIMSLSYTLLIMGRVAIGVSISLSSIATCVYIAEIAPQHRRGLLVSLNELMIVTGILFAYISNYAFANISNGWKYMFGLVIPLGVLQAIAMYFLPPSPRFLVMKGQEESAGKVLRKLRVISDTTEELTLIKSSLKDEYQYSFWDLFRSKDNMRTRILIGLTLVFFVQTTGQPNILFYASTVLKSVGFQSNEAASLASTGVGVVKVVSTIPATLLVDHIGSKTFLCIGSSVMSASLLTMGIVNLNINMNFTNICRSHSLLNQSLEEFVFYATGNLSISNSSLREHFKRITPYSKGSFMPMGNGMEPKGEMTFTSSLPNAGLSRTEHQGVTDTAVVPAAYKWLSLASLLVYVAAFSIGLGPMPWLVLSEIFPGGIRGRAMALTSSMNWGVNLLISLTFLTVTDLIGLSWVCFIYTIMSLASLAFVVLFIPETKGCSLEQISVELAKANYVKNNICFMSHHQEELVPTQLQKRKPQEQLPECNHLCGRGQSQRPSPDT

[1] = substrate: O=C1O[C@H]([C@@H](O)CO)C(O)=C1O; experiment: cells, lysate or membranes; settings: Krebs-Ringer buffer, pH 5.4, 37 °C, labelled compound

O=c1[nH]c(=O)c2[nH]c(=O)[nH]c2[nH]1 [urate]
[8-14C]-urate uptake in transiently transfected HEK293 cells (mouse Glut12/Slc2a12): cell-based urate uptake assays using human GLUT12- and mouse Glut12-expressing HEK293 cells were conducted

B1: human GLUT12/SLC2A12 (Homo sapiens) (protein)
chain: MVPVENTEGPSLLNQKGTAVETEGSGSRHPPWARGCGMFTFLSSVTAAVSGLLVGYELGIISGALLQIKTLLALSCHEQEMVVSSLVIGALLASLTGGVLIDRYGRRTAIILSSCLLGLGSLVLILSLSYTVLIVGRIAIGVSISLSSIATCVYIAEIAPQHRRGLLVSLNELMIVIGILSAYISNYAFANVFHGWKYMFGLVIPLGVLQAIAMYFLPPSPRFLVMKGQEGAASKVLGRLRALSDTTEELTVIKSSLKDEYQYSFWDLFRSKDNMRTRIMIGLTLVFFVQITGQPNILFYASTVLKSVGFQSNEAASLASTGVGVVKVISTIPATLLVDHVGSKTFLCIGSSVMAASLVTMGIVNLNIHMNFTHICRSHNSINQSLDESVIYGPGNLSTNNNTLRDHFKGISSHSRSSLMPLRNDVDKRGETTSASLLNAGLSHTEYQIVTDPGDVPAFLKWLSLASLLVYVAAFSIGLGPMPWLVLSEIFPGGIRGRAMALTSSMNWGINLLISLTFLTVTDLIGLPWVCFIYTIMSLASLLFVVMFIPETKGCSLEQISMELAKVNYVKNNICFMSHHQEELVPKQPQKRKPQEQLLECNKLCGRGQSRQLSPET
Km ([1]; 5 min uptake): 846 µM

B2: mouse Glut12/Slc2a12 (Mus musculus) (protein)
chain: MVPVENTEGPNLLNQKGREAETEGSCGASGGGHPACAGGPSMFTFLTSVTAAISGLLVGYELGLISGALLQIRTLLALTCHEQEMVVSSLLIGAFLASLTGGVLIDRYGRRLAIILSSCLLGLGSLVLIMSLSYTLLIMGRVAIGVSISLSSIATCVYIAEIAPQHRRGLLVSLNELMIVTGILFAYISNYAFANISNGWKYMFGLVIPLGVLQAIAMYFLPPSPRFLVMKGQEESAGKVLRKLRVISDTTEELTLIKSSLKDEYQYSFWDLFRSKDNMRTRILIGLTLVFFVQTTGQPNILFYASTVLKSVGFQSNEAASLASTGVGVVKVVSTIPATLLVDHIGSKTFLCIGSSVMSASLLTMGIVNLNINMNFTNICRSHSLLNQSLEEFVFYATGNLSISNSSLREHFKRITPYSKGSFMPMGNGMEPKGEMTFTSSLPNAGLSRTEHQGVTDTAVVPAAYKWLSLASLLVYVAAFSIGLGPMPWLVLSEIFPGGIRGRAMALTSSMNWGVNLLISLTFLTVTDLIGLSWVCFIYTIMSLASLAFVVLFIPETKGCSLEQISVELAKANYVKNNICFMSHHQEELVPTQLQKRKPQEQLPECNHLCGRGQSQRPSPDT
Km [1]: 1245 µM
